B1: A-034 (IgG1 format) (antibody, V domains shown)
VH: QMQLVQSGGGLVKPGGSLRLSCAASGFTFSSYTMNWVRQAPGKGLEWVSSISSIGTYIYYADSVKGRFTISRDNAKNSLYLQMNSLRAEDTAVYYCARVLLSGSYYGYFDSWGQGTLVTVSS
VL: QSVLTQPPSVSGAPGQRVTISCTGSSSNIGAGYDVHWYQQLPGTAPKLFIYGNSNRPSGVPDRFSGSKSGTSASLAITGLQAEDEADYYCQSYDSSLSGYVFGTGTKVTVL
notes: human IgG1 format
B2: A-004 (IgG1 format) (antibody, V domains shown)
VH: EVQLVESGGGLVKPGGSLRLSCAASGFTFSSYSMNWVRQAPGKGLEWVSSISSSSSYIYYADSVKGRFTISRDNAKNSLYLQMNSLRAEDTAVYYCARGQLLWFGESALIDAFDIWGQGTMVTVSS
VL: EIVLTQSPSSLSASVGDRVTITCRASQSISSYLNWYQLKPGKAPKLLIYAASILQSGVPSRFSGSGSGTDFTLTISSLQPEDFAAYYCQQSYSTPRTFGQGTKLEIK
notes: human IgG1 format
B3: A-010 (IgG1 format) (antibody, V domains shown)
VH: QVQLVQSGAEVKKPGASVKVSCKASGYTFTSYGISWVRQAPGQGLEWMGWISAYNGNTNYAQKLQGRVTMTTDTSTSTAYMELRSLRSDDTAVYYCARVPAWSGQFDYWGQGTLVTVSS
VL: QSALTQPASVSGSPGQSITISCTGSSSDVGGYNYVSWYQQYPGKAPKLMIYDVRSRPSGVSNRFSGSKSGNTASLTISGLQAEDEADYYCTSYTSSNTLVIFGGGTKVTVL
notes: human IgG1 format
B4: A-035 (IgG1 format) (antibody, V domains shown)
VH: QVQLVQSGAEVKKPGASVKVSCKASGYTFTGYYMHWVRQAPGQGLEWMGWINPNSGNTGYAQKFQGRVTMTRNTSISTAYMELSSLRSEDTAVYYCARGRLERGYWYFDLWGRGTLVTVSS
VL: NFMLTQPHSVSESPGRTVTISCTRSSGSITSNYVQWYQQRPGSAPTILIYEDKERPSEVPDRFSGSIDISSNSASLTISGLKTEDEADYYCQSYGGTSQGVLFGGGTKVTVL
notes: human IgG1 format
B5: A-027 (IgG1 format) (antibody, V domains shown)
VH: QVQLVQSGAEVKKPGSSVKVSCKASGGTFSSYAISWVRQAPGQGLEWMGGIIPIFGTANYAQKFQGRVTITADKSTSTAYMELSSLRSEDTAVYYCARARGSTWGYFDYWGQGTLVTVSS
VL: EIVLTQSPASLSLSPGERVTLSCRASQSVSNYLAWYQQKPGQAPRLLIYDASNRATGIPARFSGSGSGTDFTLTISSLEPEDFAVYYCQQRDNWPLTFGGGTKVEIK
notes: human IgG1 format
B6: A-021 (scFv format) (scFv, V domains shown)
VH: B3 VH
VL: QSALTQPASVSGSPGQSITISCTGTSSDVGGYNYVSWYQQHPGKAPKLMIYEVTNRPSGVSDRFSGSKSANTASLTISELQAEDEAVYYCNSYTSGPTYVLFGGGTQLTVL
notes: scFv
B7: A-028 (scFv format) (scFv, V domains shown)
VH: QVQLVQSGAEVKKPGSSVKVSCKASGGTFSSYAISWVRQAPGQGLEWMGGIIPIFGTANYAQKFQGRVTITADESTSTAYMELSSLRSEDTAVYYCARVGVEYQLLWYFDYWGQGTLVTVSS
VL: DIQMTQSPSSLSASVGDRVTLTCRTSQTISNYLNWYQQKPGKAPKLLVYAASNLQSWVPSRFSGSGSGTDFTLTISSLQPEDFATYYCQQSYNASFGGGTKVEFK
notes: scFv
B8: A-032 (scFv format) (scFv, V domains shown)
VH: QVQLVQSGAEVKKPGASVKVSCKASGYTFTGYYMHWVRQAPGQGLEWMGWMNPNSGNTGYAQKFQGRVTMTRNTSISTAYMELSSLRSEDTAVYYCARGGQQQLVLDDYWGQGTLVTVSS
VL: not shown
B9: A-019 (scFv format) (scFv, V domains shown)
VH: B8 VH with M51I
VL: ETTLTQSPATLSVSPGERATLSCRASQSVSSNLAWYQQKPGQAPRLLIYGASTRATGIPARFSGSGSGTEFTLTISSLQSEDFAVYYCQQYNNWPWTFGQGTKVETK
notes: scFv
B10: A-017 (scFv format) (scFv, V domains shown)
VH: B8 VH with M51I
VL: DIVLTQSPASLSASVGDRITITCQASQDIRHHLNWFQHKPGKAPKLLISDSSNLETGVPSRFSGSGSGTDFSFTISRLQPEDIATYYCQQYDSLPRTFGQGTKLEIK
notes: scFv
B11: A-037 (scFv format) (scFv, V domains shown)
VH: B8 VH with M51I
VL: NFMLTQPHSVSESPGKTVTISCTGSSGSIASNYVQWYQQRPGSAPTTVIYEDNQRPSGVPDRFSGSIDSSSNSASLTISGLKTEDEADYYCQSYDSSNQRVFGGGTKLTVL
notes: scFv
B12: A-014 (scFv format) (scFv, V domains shown)
VH: QVQLVQSGAEVKKPGASVKVSCKASGYTFNDYYIHWVRQAPGQGLEWMGWFNPSTGGANYAQKFQGRVTMTRDTSISTAYLEVSSLRSDDTAVYYCARGNSPDLDYWGQGTLVTVSS
VL: DIQMTQSPDSLTVSLGERATINCKSSQSLLHSSNNKNYLAWYQQRPGQPPKLLIYWASTRQSGVPDRFSGSGSGTDFTLTINSLQADDMAVYYCQQYYTTTPNTFGQGTKLEIK
notes: scFv
B13: A-015 (IgG1 format) (antibody, V domains shown)
VH: not shown
VL: QPVLTQSPSASASLGASVKLTCTLSSGHTNYAIAWRQQQPGKAPRYLMLLNSDGSHTRGGGIPDRFSGSSSGAERYLTISSLQSEDEADYYCMIWHNNAWVFGGGTKLAVL
notes: human IgG1 format

We go through 13 molecules from patent US20240010720A1 (IOMX THERAPEUTICS, published 2024).

The Kd is a measure of binding affinity in units of concentration. Broadly, the EC50 is the concentration giving half of the maximal effect. Low values mean a more potent agent, high ones a less potent agent.

Substitutions are numbered along the chain they refer to. Some results are limits rather than exact numbers.

T3 sequence (P22629 37-163 limits assumed): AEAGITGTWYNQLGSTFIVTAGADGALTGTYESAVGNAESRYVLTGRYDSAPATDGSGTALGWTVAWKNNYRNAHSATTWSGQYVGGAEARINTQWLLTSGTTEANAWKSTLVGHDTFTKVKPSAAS

For one experiment, the target named is T1, recombinant human IGSF11 (VSIG3) extracellular domain (ECD) (human, UniProt Q5DX21 23-241, biotinylated where captured on streptavidin).
T1 construct: also called biotinylated recombinant ECD-IGSF11; IGSF11 (ECD domain)
T1 sequence: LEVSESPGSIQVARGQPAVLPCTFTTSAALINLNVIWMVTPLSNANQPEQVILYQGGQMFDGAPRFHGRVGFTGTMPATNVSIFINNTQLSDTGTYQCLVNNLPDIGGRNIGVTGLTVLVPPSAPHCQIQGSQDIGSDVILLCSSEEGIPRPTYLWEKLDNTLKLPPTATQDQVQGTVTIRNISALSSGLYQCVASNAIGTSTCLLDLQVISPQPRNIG
As to the kind of experiment: SPR, IgG1. (In general: In SPR one partner is held on a chip, and binding of the other changes the refractive index at the surface.)
Regarding B1, the Kd was 250 to 500 nM.
As to B2, the Kd is 100 to 250 nM.

Another experiment concerns the target T2, IGSF11 ECD fused to murine-Fc (human; mouse, UniProt Q5DX21 23-241).
T2 construct: also called Fc-fusion IGSF11 ECD; full-length ECD of IGSF11; not shown: murine Fc
T2 sequence: T1 sequence
The experiment can be described thus: ELISA, IgG.
In turn, B3 showed a concentration giving a half-maximal response (EC50) below 1 nM.
For the molecule B2, the EC50 fell in the range of 1 to 20 nM.
Molecule B4 had a 50% effective concentration (EC50) of 1 to 20 nM.
B5: the EC50 was in the range of 1 to 20 nM.

The next experiment addresses T3, Streptavidin (UniProt P22629 37-163, limits assumed).
T3 construct: also called negative antigen; irrelevant antigen
As to the kind of experiment: ELISA, scFv.
As for B6, the binding result is “no binding (tested: <0.025 or <0.05 RFU)”.
On to B7, for which the binding result was “no binding (tested: <0.025 or <0.05 RFU)”.
Still for that read-out and setting: with B8 the entry was “no binding (tested: <0.025 or <0.05 RFU)”.
As to B9, the binding result is recorded as “no binding (tested: <0.025 or <0.05 RFU)”.
Regarding B10, the binding result was “no binding (tested: <0.025 or <0.05 RFU)”.
Same read-out and setting: under B11 stands “no binding (tested: <0.025 or <0.05 RFU)”.
On the same count and under the same terms, under B12 stands “no binding (tested: <0.025 or <0.05 RFU)”.

Another experiment addresses T4, His-tagged extracellular domain (ECD) of human IGSF11 (VSIG3) (human, UniProt Q5DX21 23-241).
T4 construct: partly bought (SinoBiological 13094-H08H); also called IGSF11-HIS; HIS-IGSF11; not shown: HIS6 tag
T4 sequence: T1 sequence
The experiment can be described thus: ELISA EC50 grade, IgG1.
In turn, B1 registered a 50% effective concentration (EC50) of 0.05 to 1 nM.
The same measure, in the same setting: with B3 the figure was below 0.02 nM; with B2, below 0.02 nM; with B4, 0.02 to 0.05 nM.
In turn, B5 yielded an EC50 above 1 nM.

Another experiment concerns the target T5, human IGSF11 (VSIG3) on cells (human, UniProt Q5DX21 23-431).
T5 sequence: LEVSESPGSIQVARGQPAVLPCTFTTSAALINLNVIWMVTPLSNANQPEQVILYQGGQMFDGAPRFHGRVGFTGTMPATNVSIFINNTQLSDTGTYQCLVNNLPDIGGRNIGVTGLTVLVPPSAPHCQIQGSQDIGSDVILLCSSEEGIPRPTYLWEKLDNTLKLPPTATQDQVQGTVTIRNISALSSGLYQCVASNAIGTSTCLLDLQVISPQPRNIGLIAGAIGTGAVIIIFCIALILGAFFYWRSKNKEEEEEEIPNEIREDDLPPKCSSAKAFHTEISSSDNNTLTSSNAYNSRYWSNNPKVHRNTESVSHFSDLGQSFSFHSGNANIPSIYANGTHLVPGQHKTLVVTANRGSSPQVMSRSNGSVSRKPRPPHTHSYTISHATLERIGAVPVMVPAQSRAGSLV
The experiment can be described thus: FACS % positive cells, scFv.
Regarding B6, the binding result is on record as “binds”.
As to B7, the binding result is “binds”.
Still for that read-out and setting: with B8 the entry was “binds”.
Regarding B9, the binding result is “binds”.
B10: the binding result is “binds”.
For the molecule B11, the binding result was “binds”.
With B12, the binding result is on record as “binds”.

Another experiment addresses T5, human IGSF11 (VSIG3) on cells. The experiment can be described thus: FACS, HEK cells expressing IGSF11. (Flow cytometry measures light scatter and fluorescence of single cells or particles in a stream.)
In turn, B4 had an EC50 above 50 nM.
Same read-out and setting: under B5 stands above 50 nM.

A further experiment has the same target. As to the kind of experiment: FACS, IgG1-format antibodies; DMS 273 cells (D) treated with IGSF11 siRNA (KD).
For B13, the “percentage binding (FACS heat-map)” value amounted to 1.6%.
Still for that read-out and setting: under B5 stands 2.63%.

The target is the same in the next experiment. As to the kind of experiment: FACS, IgG1-format antibodies; M579-A2-luc cells (M) treated with IGSF11 siRNA (KD).
Regarding B13, the “percentage binding (FACS heat-map)” value was determined as 1.3%.
Still for that read-out and setting: under B5 stands 2.5%.

A further experiment shares this target. As to the kind of experiment: FACS, IgG1-format antibodies; DMS 273 cells (D) treated with scrambled control siRNA (SC).
Consider B13, for which the “percentage binding (FACS heat-map)” value was found to be 5.97%.
The same measure, in the same setting: under B5 stands 14.3%.

The next experiment has the same target. The experiment can be described thus: FACS, IgG1-format antibodies; M579-A2-luc cells (M) treated with scrambled control siRNA (SC).
B13: the “percentage binding (FACS heat-map)” value came out at 1.17%.
Take B5: the “percentage binding (FACS heat-map)” value was determined as 3.32%.

Another experiment has the same target. The experiment can be described thus: FACS, IgG1-format antibodies; CL-11 cells (C), a line that does not express IGSF11 (specificity control), IGSF11 siRNA (KD).
As for B13, the “percentage binding (FACS heat-map)” value worked out at 2.91%.
Still for that read-out and setting: under B5 stands 4.75%.

Another experiment shares this target. The experiment can be described thus: FACS, IgG1-format antibodies; CL-11 cells (C), a line that does not express IGSF11 (specificity control), scrambled control siRNA (SC).
With B13, the “percentage binding (FACS heat-map)” value was 1.95%.
In the case of B5, the “percentage binding (FACS heat-map)” value was 3.08%.
